Experimental data from patent US20170369545A1 (CENTRE NATIONAL DE LA RECHERCHE SCIENTIFIQUE, published 2017).

Tests used:
[1] = biological target: T1, tyrosine kinase receptor MET on HeLa cells (UniProt P08581 25-1390, limits assumed); assay: cell-based or functional assay
[2] = biological target: T1, tyrosine kinase receptor MET on HeLa …; assay: cell-based or functional assay; remark: listed apart in the source

T1 sequence (P08581 25-1390 limits assumed): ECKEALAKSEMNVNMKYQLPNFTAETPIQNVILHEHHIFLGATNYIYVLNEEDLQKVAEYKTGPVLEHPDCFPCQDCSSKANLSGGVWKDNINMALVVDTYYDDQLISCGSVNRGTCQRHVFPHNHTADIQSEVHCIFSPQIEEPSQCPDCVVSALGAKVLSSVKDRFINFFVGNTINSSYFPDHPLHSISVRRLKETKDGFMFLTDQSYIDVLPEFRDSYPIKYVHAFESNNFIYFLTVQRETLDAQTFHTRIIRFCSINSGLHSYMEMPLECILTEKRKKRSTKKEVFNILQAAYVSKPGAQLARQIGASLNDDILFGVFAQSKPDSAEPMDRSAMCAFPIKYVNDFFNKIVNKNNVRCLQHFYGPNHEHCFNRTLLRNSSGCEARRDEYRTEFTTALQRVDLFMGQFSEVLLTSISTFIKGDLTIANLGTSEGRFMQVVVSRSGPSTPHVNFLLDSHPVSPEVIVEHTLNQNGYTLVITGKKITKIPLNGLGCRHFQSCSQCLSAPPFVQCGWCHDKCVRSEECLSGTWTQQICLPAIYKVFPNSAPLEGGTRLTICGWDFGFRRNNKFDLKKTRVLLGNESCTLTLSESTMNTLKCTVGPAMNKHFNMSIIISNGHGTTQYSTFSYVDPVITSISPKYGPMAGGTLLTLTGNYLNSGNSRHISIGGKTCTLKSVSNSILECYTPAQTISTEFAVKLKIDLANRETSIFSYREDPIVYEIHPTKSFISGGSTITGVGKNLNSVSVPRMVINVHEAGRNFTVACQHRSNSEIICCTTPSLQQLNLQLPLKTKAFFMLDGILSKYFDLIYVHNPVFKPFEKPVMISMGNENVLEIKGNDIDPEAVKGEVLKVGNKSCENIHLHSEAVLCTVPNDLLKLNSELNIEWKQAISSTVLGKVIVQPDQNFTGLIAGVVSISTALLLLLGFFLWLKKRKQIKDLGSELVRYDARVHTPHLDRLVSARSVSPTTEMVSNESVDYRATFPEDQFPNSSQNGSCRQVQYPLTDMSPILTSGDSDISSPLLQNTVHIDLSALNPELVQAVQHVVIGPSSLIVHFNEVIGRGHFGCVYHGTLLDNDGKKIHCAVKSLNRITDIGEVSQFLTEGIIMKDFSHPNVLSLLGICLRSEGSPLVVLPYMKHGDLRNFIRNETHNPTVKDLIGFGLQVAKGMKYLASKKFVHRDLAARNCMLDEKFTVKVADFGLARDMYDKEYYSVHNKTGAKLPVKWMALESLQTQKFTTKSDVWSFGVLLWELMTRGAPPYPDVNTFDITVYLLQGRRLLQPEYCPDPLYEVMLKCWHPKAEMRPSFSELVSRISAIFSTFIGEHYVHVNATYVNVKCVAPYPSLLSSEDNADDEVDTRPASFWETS

ERK and Akt phosphorylation in HeLa cells (western blot, ALPHAScreen) [1] [pM] | MET phosphorylation in HeLa cells (western blot) [1] [pM] | agonist activity against NK1 (ERK and Akt phosphorylation in HeLa cells) [1] | EC50 (read off the curve), Akt phosphorylation (P-AKT) [P-AKT] [2] [pM] | EC50 (read off the curve), ERK phosphorylation (P-ERK) [P-ERK] [2] [pM] | Binder
~100 | 100 | ≥ 10 times (against NK1) |  |  | K1K1 variant 3 (GS-linker variant) (designed binder) MAIRNCIIGKGRSYKGTVSITKSGIKCQPWSSMIPHEHSFLPSSYRGKDLQENYCRNPRGEEGGPWCFTSNPEVRYEVCDIPQCGSGGCIIGKGRSYKGTVSITKSGIKCQPWSSMIPHEHSFLPSSYRGKDLQENYCRNPRGEEGGPWCFTSNPEVRYEVCDIPQCSEVE
~100 | 100 | ≥ 10 times (against NK1) | ~30 | ~30 | HGF/SF-K1K1 (C-terminally tagged K1K1 protein, 6xHis tag) (designed binder) MAIRNCIIGKGRSYKGTVSITKSGIKCQPWSSMIPHEHSFLPSSYRGKDLQENYCRNPRGEEGGPWCFTSNPEVRYEVCDIPQCSEVECIIGKGRSYKGTVSITKSGIKCQPWSSMIPHEHSFLPSSYRGKDLQENYCRNPRGEEGGPWCFTSNPEVRYEVCDIPQCSEVEHHHHHH

Continued, binder first:

Binder | ERK and Akt phosphorylation in HeLa cells (western blot, ALPHAScreen) [1] [pM] | MET phosphorylation in HeLa cells (western blot) [1] [pM] | agonist activity against NK1 (ERK and Akt phosphorylation in HeLa cells) [1] | EC50 (read off the curve), Akt phosphorylation (P-AKT) [P-AKT] [2] [pM] | EC50 (read off the curve), ERK phosphorylation (P-ERK) [P-ERK] [2] [pM]
K1K1 variant 2 (long linker variant) (designed binder) MAIRNCIIGKGRSYKGTVSITKSGIKCQPWSSMIPHEHSFLPSSYRGKDLQENYCRNPRGEEGGPWCFTSNPEVRYEVCDIPQCGGGGSLVPRGSGGGGSCIIGKGRSYKGTVSITKSGIKCQPWSSMIPHEHSFLPSSYRGKDLQENYCRNPRGEEGGPWCFTSNPEVRYEVCDIPQCSEVE | ~100 | 100 | ≥ 10 times (against NK1) |  | 
K1K1 variant 1 (tagless variant) (designed binder) MAIRNCIIGKGRSYKGTVSITKSGIKCQPWSSMIPHEHSFLPSSYRGKDLQENYCRNPRGEEGGPWCFTSNPEVRYEVCDIPQCSEVECIIGKGRSYKGTVSITKSGIKCQPWSSMIPHEHSFLPSSYRGKDLQENYCRNPRGEEGGPWCFTSNPEVRYEVCDIPQCSEVE | ~100 | 100 | ≥ 10 times (against NK1) |  | 
